Experimental data published in article PMC10199097, “Molecular mechanism of hyperactivation conferred by a truncation of TRPA1” (Nature Communications, 2023).

B1: wild type (WT) human TRPA1 (Transient Receptor Potential Ankyrin subtype 1) (natural protein, UniProt O75762 1-1119, looked up)
chain: MKRSLRKMWRPGEKKEPQGVVYEDVPDDTEDFKESLKVVFEGSAYGLQNFNKQKKLKRCDDMDTFFLHYAAAEGQIELMEKITRDSSLEVLHEMDDYGNTPLHCAVEKNQIESVKFLLSRGANPNLRNFNMMAPLHIAVQGMNNEVMKVLLEHRTIDVNLEGENGNTAVIIACTTNNSEALQILLKKGAKPCKSNKWGCFPIHQAAFSGSKECMEIILRFGEEHGYSRQLHINFMNNGKATPLHLAVQNGDLEMIKMCLDNGAQIDPVEKGRCTAIHFAATQGATEIVKLMISSYSGSVDIVNTTDGCHETMLHRASLFDHHELADYLISVGADINKIDSEGRSPLILATASASWNIVNLLLSKGAQVDIKDNFGRNFLHLTVQQPYGLKNLRPEFMQMQQIKELVMDEDNDGCTPLHYACRQGGPGSVNNLLGFNVSIHSKSKDKKSPLHFAASYGRINTCQRLLQDISDTRLLNEGDLHGMTPLHLAAKNGHDKVVQLLLKKGALFLSDHNGWTALHHASMGGYTQTMKVILDTNLKCTDRLDEDGNTALHFAAREGHAKAVALLLSHNADIVLNKQQASFLHLALHNKRKEVVLTIIRSKRWDECLKIFSHNSPGNKCPITEMIEYLPECMKVLLDFCMLHSTEDKSCRDYYIEYNFKYLQCPLEFTKKTPTQDVIYEPLTALNAMVQNNRIELLNHPVCKEYLLMKWLAYGFRAHMMNLGSYCLGLIPMTILVVNIKPGMAFNSTGIINETSDHSEILDTTNSYLIKTCMILVFLSSIFGYCKEAGQIFQQKRNYFMDISNVLEWIIYTTGIIFVLPLFVEIPAHLQWQCGAIAVYFYWMNFLLYLQRFENCGIFIVMLEVILKTLLRSTVVFIFLLLAFGLSFYILLNLQDPFSSPLLSIIQTFSMMLGDINYRESFLEPYLRNELAHPVLSFAQLVSFTIFVPIVLMNLLIGLAVGDIAEVQKHASLKRIAMQVELHTSLEKKLPLWFLRKVDQKSTIVYPNKPRSGGMLFHIFCFLFCTGEIRQEIPNADKSLEMEILKQKYRLKDLTFLLEKQHELIKLIIQKMEIISETEDDDSHCSFQDRFKKEQMEQRNSRWNTVLRAVKAKTHHLEP
notes: human TRPA1, wild type, 1119 amino acids; Plasmid details are in the Supplementary Information; also called WT TRPA1; WT hTRPA1; source: HEK293T, transfected, in lysate (in intact cells for proximity biotinylation)
B2: R919* human TRPA1 mutant (CRAMPT syndrome truncation) (domain or fragment, UniProt O75762 1-918, looked up)
chain: MKRSLRKMWRPGEKKEPQGVVYEDVPDDTEDFKESLKVVFEGSAYGLQNFNKQKKLKRCDDMDTFFLHYAAAEGQIELMEKITRDSSLEVLHEMDDYGNTPLHCAVEKNQIESVKFLLSRGANPNLRNFNMMAPLHIAVQGMNNEVMKVLLEHRTIDVNLEGENGNTAVIIACTTNNSEALQILLKKGAKPCKSNKWGCFPIHQAAFSGSKECMEIILRFGEEHGYSRQLHINFMNNGKATPLHLAVQNGDLEMIKMCLDNGAQIDPVEKGRCTAIHFAATQGATEIVKLMISSYSGSVDIVNTTDGCHETMLHRASLFDHHELADYLISVGADINKIDSEGRSPLILATASASWNIVNLLLSKGAQVDIKDNFGRNFLHLTVQQPYGLKNLRPEFMQMQQIKELVMDEDNDGCTPLHYACRQGGPGSVNNLLGFNVSIHSKSKDKKSPLHFAASYGRINTCQRLLQDISDTRLLNEGDLHGMTPLHLAAKNGHDKVVQLLLKKGALFLSDHNGWTALHHASMGGYTQTMKVILDTNLKCTDRLDEDGNTALHFAAREGHAKAVALLLSHNADIVLNKQQASFLHLALHNKRKEVVLTIIRSKRWDECLKIFSHNSPGNKCPITEMIEYLPECMKVLLDFCMLHSTEDKSCRDYYIEYNFKYLQCPLEFTKKTPTQDVIYEPLTALNAMVQNNRIELLNHPVCKEYLLMKWLAYGFRAHMMNLGSYCLGLIPMTILVVNIKPGMAFNSTGIINETSDHSEILDTTNSYLIKTCMILVFLSSIFGYCKEAGQIFQQKRNYFMDISNVLEWIIYTTGIIFVLPLFVEIPAHLQWQCGAIAVYFYWMNFLLYLQRFENCGIFIVMLEVILKTLLRSTVVFIFLLLAFGLSFYILLNLQDPFSSPLLSIIQTFSMMLGDINY
notes: human TRPA1 with the patients' nonsense mutation at R919 (c.2755C>T); lacks the final 201 of 1119 amino acids (second pore helix, S6 and the whole cytoplasmic C-terminus); also called R919* TRPA1; R919* hTRPA1; source: HEK293T, transfected, in lysate (in intact cells for proximity biotinylation)

Assays:
[1] = target: the molecule itself; assay: co-IP + SEC; GFP- and 3×FLAG-tagged subunits co-expressed in HEK293T cells; anti-FLAG immunoprecipitation, eluates analysed by fluorescence size exclusion chromatography (FSEC) of the GFP-tagged subunit; anti-FLAG blot of peak fractions
[2] = target: B1; assay: pull-down; FLAG-MBP-WT and Strep-MBP-R919* hTRPA1 co-transfected; lysates tandem purified for Strep- then FLAG-tagged proteins; eluates probed with anti-MBP antibody, band intensities normalised to WT; details: partners not purified

B1
stoichiometry N [1]: 4

B2
stoichiometry N [2]: 1.3 R919* subunits per WT subunit
